Laboratory results reported in the supplement of paper PMC9732359.
± gives the uncertainty stated by the source.

Experiment: protein stability index of a GFP-peptide fusion (yeast GPS) (PSI 1-4); higher = more stable; sorted into four equal gates, so the index is relative within each strain
How it was run: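 The protein stability index combines read frequencies across sorting gates, each weighted by its gate number and then summed. To obtain those frequencies, a pooled yeast library of GFP fusions to tiled 17-residue yeast protein peptides, on a plasmid also expressing Cherry, was grown to mid-log phase in leucine-free medium. The cells were sorted into four equal gates by GFP/Cherry ratio before plasmid amplification by PCR and Illumina sequencing.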

Row | Sequence | protein stability index (doa10∆) | protein stability index (pdr5∆) | protein stability index (san1∆) | protein stability index (ubr1∆)
1 | HLIKCFFKITLQRASSK [ITC1] | 1.38 ± 0.073 | 1.19 ± 0.047 | 1.18 ± 0.12 | 1.08 ± 0.051
2 | HMISQEGIKETQAKRIF [SWI1] | 3.1 ± 0.17 | 3.53 ± 0.21 | 3.19 ± 0.11 | 3.22 ± 0.13
3 | HMSTYLKIYKVGDIVDI [RPL21B] | 1.69 ± 0.036 | 1.64 ± 0.037 | 1.95 ± 0.052 | 1.95 ± 0.036
4 | HNGRDKIQFHIHFADVA [RGR1] | 1.68 ± 0.051 | 1.79 ± 0.049 | 1.43 ± 0.079 | 1.84 ± 0.043
5 | HNVFSKEQTIQLPSKFT [RPN14] | 2.41 ± 0.11 | 2.79 ± 0.085 | 2.43 ± 0.12 | 2.64 ± 0.099
6 | HPFGHALVAGIERYPLK [RPL27A] | 2.53 ± 0.082 | 2.3 ± 0.098 | 2.49 ± 0.082 | 2.49 ± 0.062
7 | HPFVFEEVEDQINPTRE [SNF2] | 3.36 ± 0.077 | 3.5 ± 0.13 | 2.94 ± 0.17 | 3.13 ± 0.086
8 | HPKIVKKHTKKFKRHHS [RPL32] | 2.74 ± 0.054 | 3.06 ± 0.059 | 2.66 ± 0.045 | 3.02 ± 0.037
9 | HPSIYTQVFNILLQHKE [POP1] | 2.25 ± 0.083 | 2.6 ± 0.074 | 2.41 ± 0.08 | 2.39 ± 0.044
10 | HQHGDKVDIFEIPETGE [FAS2] | – | 2.75 ± 0.28 | – | 2.54 ± 0.069
11 | HQQQLQQPHYIQRTRER [DSN1] | 2.95 ± 0.055 | 3.08 ± 0.042 | 2.92 ± 0.037 | 2.84 ± 0.042
12 | HRDKNKMDMICRNINRK [DIS3] | 2.32 ± 0.081 | 2.99 ± 0.17 | 2.41 ± 0.083 | 3.33 ± 0.12
13 | HRIGQKKQVHVYRFVTE [ISW2] | 2.14 ± 0.054 | 2.33 ± 0.051 | 2.28 ± 0.075 | 2.12 ± 0.038
14 | HRLIATHTNLERDEQKR [SNF2] | 3.38 ± 0.069 | 3.25 ± 0.074 | 3.01 ± 0.11 | 3.32 ± 0.048
15 | HRLSILSHYAKIRPWRT [RPO31] | 2.81 ± 0.068 | 2.77 ± 0.066 | 2.85 ± 0.087 | 2.84 ± 0.052
16 | HSFEDAHTPMLQMYSKI [FAS1] | 2.75 ± 0.06 | 3.03 ± 0.086 | 2.82 ± 0.096 | 2.84 ± 0.076
17 | HSKFRSSSGNTWSLILN [YML031W/NDC1] | 2.75 ± 0.1 | 2.72 ± 0.099 | 3.15 ± 0.078 | 3.12 ± 0.077
18 | HSLAYLLENFANFKTSK [RRP6] | 2.68 ± 0.22 | 2.05 ± 0.14 | 2.81 ± 0.19 | 2.53 ± 0.17
19 | HSNRCIVFSKKEPFPHS [CSN12] | 2.49 ± 0.043 | 2.85 ± 0.047 | 2.8 ± 0.058 | 2.69 ± 0.037
20 | HTGKKLMAQIFFGPTYY [RPB2] | 2.64 ± 0.055 | 2.07 ± 0.043 | 1.97 ± 0.057 | 1.81 ± 0.029
21 | HTTQIVNLEDNTQDLLL [YML103C/NUP188] | 3.21 ± 0.11 | 3.35 ± 0.12 | 3.27 ± 0.069 | 3.07 ± 0.086
22 | HTVFTSVNKNKRQAYAV [RPL4A] | – | 1.17 ± 0.2 | – | –
23 | HVEKERASTELSQSRIK [YIL149C/MLP2] | 3.01 ± 0.089 | 2.93 ± 0.066 | 3.12 ± 0.095 | 3.1 ± 0.074
24 | HVESDKITAKTQHEEEE [IRR1] | 2.85 ± 0.064 | 2.96 ± 0.088 | 3.09 ± 0.092 | 2.81 ± 0.11
25 | HVVTREKGPQVCAKLFG [RPO21] | 3.24 ± 0.082 | 2.81 ± 0.079 | 2.95 ± 0.097 | 3.08 ± 0.1
26 | HYERTQTKENKRCVGVI [RPN8] | 2.9 ± 0.12 | 2.69 ± 0.1 | 2.49 ± 0.093 | 2.43 ± 0.057
27 | HYVSTSKISQMAQNKTH [YLR018C/POM34] | 1.56 ± 0.032 | 2.02 ± 0.035 | 1.78 ± 0.058 | 1.87 ± 0.027

Row | Sequence | protein stability index (doa10∆) | protein stability index (pdr5∆) | protein stability index (san1∆) | protein stability index (ubr1∆)
28 | HYVVLDTNVVLQAIDLL [DIS3] | 2.53 ± 0.093 | 2.49 ± 0.073 | 2.23 ± 0.1 | 2.39 ± 0.064
29 | IAASYHYPEIEDLVDRI [RPP0] | – | 1.89 ± 0.16 | – | –
30 | IADELMKLDDSSKTRNV [ITC1] | 2.61 ± 0.072 | 2.09 ± 0.12 | 2.69 ± 0.072 | 2.78 ± 0.08
31 | IADKTTYDKETITDLIE [SIR4] | 3.3 ± 0.063 | 3.33 ± 0.064 | 3.42 ± 0.051 | 3.27 ± 0.05
32 | IAEVGNKRWKVDIGGKQ [RRP4] | 3.62 ± 0.19 | 3.32 ± 0.14 | 3.22 ± 0.11 | 3.36 ± 0.061
33 | IAKPNTANAKHTSSNSR [SMB1] | 2.93 ± 0.069 | 2.73 ± 0.094 | 2.72 ± 0.089 | 2.87 ± 0.067
34 | IAPRPLDLLRPVVRAPT [RPL13A] | 2.55 ± 0.08 | 3.15 ± 0.089 | 2.1 ± 0.12 | 2.7 ± 0.051
35 | IASTEKPENKTDKVSLS [SIR4] | 3.21 ± 0.069 | 3.1 ± 0.09 | 3.17 ± 0.067 | 2.89 ± 0.088
36 | IAVLRSKEWFQLDDEDF [FAS1] | 2.03 ± 0.041 | 2.09 ± 0.041 | 1.81 ± 0.058 | 2.32 ± 0.038
37 | ICLYSSFQKNSLHNTEK [AAR2] | 1.99 ± 0.065 | 2.24 ± 0.058 | 2.57 ± 0.064 | 2.78 ± 0.057
38 | IDADSLEDIYTSAHEAI [RPL5] | 2.98 ± 0.097 | 3.02 ± 0.11 | 2.9 ± 0.1 | 3.13 ± 0.056
39 | IDAMKAVAEAYNNRSLL [RPN6] | 1.7 ± 0.061 | 2.07 ± 0.068 | 2.28 ± 0.095 | 1.79 ± 0.067
40 | IDDANVTRKQEDARRNP [RPC37] | 1.45 ± 0.15 | 1.8 ± 0.081 | 2.06 ± 0.13 | 2.01 ± 0.1
41 | IDEHIDLGIKYDPSIGI [RPL11A] | 2.84 ± 0.035 | 3.06 ± 0.039 | 2.91 ± 0.03 | 2.903 ± 0.029
42 | IDEIDAIGTKRYDSNSG [RPT2] | – | 2.26 ± 0.14 | 2.36 ± 0.087 | 2.92 ± 0.19
43 | IDGKTVSYKDYSIFLEN [SMC1] | 2.72 ± 0.062 | 3.07 ± 0.057 | 2.85 ± 0.061 | 2.89 ± 0.046
44 | IDGKVIQAGKFDNKSTS [SNF2] | 1.36 ± 0.057 | 1.42 ± 0.064 | 1.9 ± 0.21 | 1.95 ± 0.089
45 | IDIINKLILHAIHIFES [YML103C/NUP188] | 1.5 ± 0.053 | 1.56 ± 0.058 | 1.42 ± 0.065 | 1.38 ± 0.034
46 | IDKLMLSPSDQFAPAFL [SSN2] | 1.99 ± 0.068 | 2.24 ± 0.1 | 2.1 ± 0.13 | 2.5 ± 0.09
47 | IDMGEDKENVPVEKVKE [DPB4] | 3.41 ± 0.23 | 3.45 ± 0.14 | 3.29 ± 0.21 | 3.67 ± 0.13
48 | IDPSVTMMTVEEKPDVT [RPT1] | 2.62 ± 0.097 | 2.58 ± 0.059 | 1.93 ± 0.13 | 2.38 ± 0.05
49 | IDQDIHGIVFQHPFPLA [SSN2] | 2.13 ± 0.044 | 2.25 ± 0.051 | 2.24 ± 0.059 | 2.64 ± 0.032
50 | IDQVMMSVSDNDQALIK [RET1] | 2.9 ± 0.054 | 3.06 ± 0.066 | 3.13 ± 0.048 | 3.01 ± 0.051
51 | IDRNLKCQTCQEGMNEC [RPO21] | 2.48 ± 0.086 | 1.38 ± 0.061 | 2.56 ± 0.079 | 2.37 ± 0.079
52 | IDRNSTILYLNVFHGLC [IRR1] | 2.41 ± 0.14 | 1.52 ± 0.084 | 2.14 ± 0.25 | 2.78 ± 0.17
53 | IDRPKHELSRAELEELE [SMD2] | 3.27 ± 0.083 | 3.27 ± 0.15 | 3.32 ± 0.07 | 3.38 ± 0.1
